Reference: doi:10.1101/2020.02.26.964882

Target: COVID-19 virus main protease (M^pro) (COVID-19 virus)
Experiment: crystal structure

COVID-19 virus main protease (M^pro) (enzyme)
stoichiometry N: 2
